For data set [1], the target named is T1, DepBRleg (Rhizobium leguminosarum, UniProt J0WHR2).
T1 construct: gene Rleg4DRAFT_7458; N-terminal His-tag, pET28a (NdeI/HindIII), expressed in E. coli BL21 LOBSTR; about 39 kDa protomer; octamer
Put plainly: tryptophan fluorescence quenching. It counts as binding. From the text: (§1) tryptophan fluorescence quenching on DepBRleg

In data set [2] the target is T2, DepBRleg (Rhizobium leguminosarum, UniProt J0WHR2, Q294E).
T2 construct: gene Rleg4DRAFT_7458; N-terminal His-tag, pET28a (NdeI/HindIII), expressed in E. coli BL21 LOBSTR; about 39 kDa protomer; octamer
Put plainly: tryptophan fluorescence quenching. It counts as binding.
Excerpt: as §1

Data set [3] concerns the target T3, DepBRleg (Rhizobium leguminosarum, UniProt J0WHR2, K217E).
T3 construct: gene Rleg4DRAFT_7458; N-terminal His-tag, pET28a (NdeI/HindIII), expressed in E. coli BL21 LOBSTR; about 39 kDa protomer; octamer
In words: tryptophan fluorescence quenching. It counts as binding.
Excerpt: as §1

Data set [4] has as its target T4, DepBRleg (Rhizobium leguminosarum, UniProt J0WHR2, R290E).
T4 construct: gene Rleg4DRAFT_7458; N-terminal His-tag, pET28a (NdeI/HindIII), expressed in E. coli BL21 LOBSTR; about 39 kDa protomer; octamer
In words: tryptophan fluorescence quenching. It counts as binding.
Excerpt: as §1

For data set [5], the target named is T5, DepBRleg (Rhizobium leguminosarum, UniProt J0WHR2, R290N).
T5 construct: gene Rleg4DRAFT_7458; N-terminal His-tag, pET28a (NdeI/HindIII), expressed in E. coli BL21 LOBSTR; about 39 kDa protomer; octamer
In words: tryptophan fluorescence quenching. It counts as binding.
Excerpt: as §1

The target in data set [6] is T6, DepBRleg (Rhizobium leguminosarum, UniProt J0WHR2, K217M).
T6 construct: gene Rleg4DRAFT_7458; N-terminal His-tag, pET28a (NdeI/HindIII), expressed in E. coli BL21 LOBSTR; about 39 kDa protomer; octamer
In words: tryptophan fluorescence quenching. It is filed as binding.
Excerpt: as §1

Data set [7] relates to O=C1C(=O)c2ccccc2-c2ccccc21. Put plainly: purified protein. It is filed as biochemical, Rhizobium leguminosarum. To be noted: pH 7.5; 25.0 °C.
For data set [8], the target named is T1, DepBRleg. Put plainly: NADPH oxidation at […] nm. It is filed as biochemical.
In data set [9] the target is DepB from Rhizobium leguminosarum (DepB_(Rleg)) (Rhizobium leguminosarum). Put plainly: SEC-MALS; P3000 single-pore GPC/SEC column; 20 mM HEPES, 150 mM NaCl, 0.02% NaN3, pH 7; protein at 0.5 mg/mL.
Substrate in data set [10]: NC(=O)C1=CN([C@@H]2O[C@H](COP(=O)(O)OP(=O)(O)OC[C@H]3O[C@@H](n4cnc5c(N)ncnc54)[C@H](O)[C@@H]3O)[C@@H](O)[C@H]2O)C=CC1
In words: purified protein. To be noted: 10 mM DL-glyceraldehyde, 100 mM HEPES pH 7.5, 298 K, 25.0 °C, varied: cofactor.

Substrate in data set [11]: NC(=O)C1=CN([C@@H]2O[C@H](COP(=O)(O)OP(=O)(O)OC[C@H]3O[C@@H](n4cnc5c(N)ncnc54)[C@H](OP(=O)(O)O)[C@@H]3O)[C@@H](O)[C@H]2O)C=CC1
In words: purified protein. It is filed as biochemical, Rhizobium leguminosarum. As to conditions: 10 mM DL-glyceraldehyde, 100 mM HEPES pH 7.5, 298 K, 25.0 °C, varied: cofactor.

Substrate in data set [12]: O=C1Nc2ccccc2C1=O
Put plainly: purified protein. It counts as biochemical, Rhizobium leguminosarum. As to conditions: 1 mM NADPH, 100 mM HEPES pH 7.5, 298 K, about 10% DMSO, 25.0 °C.

Substrate in data set [13]: CCCC=O
Put plainly: purified protein. It is filed as biochemical, Rhizobium leguminosarum. As to conditions: 1 mM NADPH, 100 mM HEPES pH 7.5, 298 K, about 10% DMSO, 25.0 °C.

Substrate in data set [14]: CCCCCC(=O)/C=C/C=O
In words: purified protein. It is filed as biochemical, Rhizobium leguminosarum. To be noted: 1 mM NADPH, 100 mM HEPES pH 7.5, 298 K, about 10% DMSO, 25.0 °C.

Substrate in data set [15]: O=CC(O)CO
Put plainly: purified protein. It counts as biochemical, Rhizobium leguminosarum. To be noted: 1 mM NADPH, 100 mM HEPES pH 7.5, 298 K, about 10% DMSO, 25.0 °C.

Substrate in data set [16]: CCCCCC=O
In words: purified protein. It is filed as biochemical, Rhizobium leguminosarum. To be noted: 1 mM NADPH, 100 mM HEPES pH 7.5, 298 K, about 10% DMSO, 25.0 °C.

Where two headings read alike, the source gives them in different places.

In the case of `NC(=O)C1=CN([C@@H]2O[C@H](COP(=O)(O)OP(=O)(O)OC[C@H]3O[C@@H](n4cnc5c(N)ncnc54)[C@H](OP(=O)(O)O)[C@@H]3O)[C@@H](O)[C@H]2O)C=CC1` [NADPH], the Kd was determined as 11.4 ± 0.84 µM on DepBRleg [1]; 97.9 ± 13 µM at DepBRleg [2]; 68.6 ± 8.7 µM at DepBRleg [3]; 123 ± 6.2 µM at DepBRleg [4]; 59.5 ± 4.2 µM on DepBRleg [5]; 74.1 ± 4.6 µM on DepBRleg [6].
For the molecule “DepBRleg (Rhizobium leguminosarum bv. trifolii WSM2297)”, the Michaelis constant (Km) in data set [7] came to 68.3 ± 14.3 µM.
Take `NC(=O)C1=CN([C@@H]2O[C@H](COP(=O)(O)OP(=O)(O)OC[C@H]3O[C@@H](n4cnc5c(N)ncnc54)[C@H](O)[C@@H]3O)[C@@H](O)[C@H]2O)C=CC1` [NADH]: the equilibrium dissociation constant (Kd) is 67.3 ± 2.5 µM on DepBRleg [1], 91.2 ± 10 µM on DepBRleg [2] and 119 ± 9.8 µM on DepBRleg [4].
For the molecule `C=CC=O` [Acrolein], the Michaelis-Menten constant (Km) on DepBRleg [8] (1 mM NADPH, 100 mM HEPES pH 7.5, 298 K, about 10% DMSO; read-out: Km,app) was 83.3 ± 6.69 µM.
Regarding `O=C1C=C2C(=CCOC2O)O1` (stereo not drawn) [Patulin], on DepBRleg [8] (read-out: Km,app; 1 mM NADPH, 100 mM HEPES pH 7.5, 298 K, about 10% DMSO), the Km came out at 678 ± 85.5 µM.
“DepB from Rhizobium leguminosarum (DepB_(Rleg)) (enzyme)” had a stoichiometry N in data set [9] of 8.

B1: DepBRleg (Rhizobium leguminosarum bv. trifolii WSM2297) (protein)
chain: MDYRKLGPSGTVVTAYCLGTMTFGAEADEAASHKLLDDYFAWGGNFIDTADVYSAGKSEEIIGRWLKARPTEARQAIVATKGRFPMGNGPNDIGLSRRHLSQALDDSLRRLGLEQIDLYQMHAWDALTPIEETLRFLDDAVSSGKIGYYGFSNYVGWHIAKASEIAKARGYTRPVTLQPQYNLLMRDIELEIVAACQDAGMGLLPWSPLGGGWLTGKYKRDEMPTGATRLGENPNRGGESYAPRNAQERTWAIIGTVEEIAKARGVSMAQVALAWTAARPAITSVILGARTPEQLADNLGAMKVELSGEEMARLNEVSAPQPLDYPYGKGGINQRHRKIEGGR
B1: the Km in the data set “purified protein [10]” turned out to be 1560 ± 399 µM; in the data set “purified protein [11]” it was 15.2 ± 1.41 µM; in “purified protein [12]”, 1780 ± 410 µM; in “purified protein [13]”, 617 ± 33.5 µM; in the data set “purified protein [14]” it was 1020 ± 136 µM; in the data set “purified protein [15]”, 3890 ± 516 µM. Besides, the Km in “purified protein [16]” turned out to be 1230 ± 231 µM. The catalytic constant (kcat) in “purified protein [10]” was determined as 0.0242 ± 0.00344 s⁻¹; in the data set “purified protein [11]” it was 0.337 ± 0.00757 s⁻¹; in the data set “purified protein [12]”, 6.43 ± 0.920 s⁻¹; in “purified protein [13]” it was 0.410 ± 0.00922 s⁻¹; in the data set “purified protein [14]” it was 7.90 ± 0.678 s⁻¹; in “purified protein [15]”, 0.782 ± 0.0803 s⁻¹. For the same molecule, the kcat in “purified protein [16]” came out at 0.303 ± 0.0269 s⁻¹.
